± gives the uncertainty stated by the source.
B1: DnaJ homolog subfamily C member 2, residues 451 to 503; numbered along this chain, Q99543 (parent)
chain: SKNWSEDDLQLLIKAVNLFPAGTNSRWEVIANYMNIHSSSGVKRTAKDVIGKA
B2: Formin-binding protein 4, residues 593 to 636; numbered along this chain, Q8N3X1 (parent)
chain: EINATPKGWSCHWDRDHRRYFYVNEQSGESQWEFPDGEEEEEES

Variants of: B1
Experiment: abundance fitness (aPCA) (normalised: wild type 0, dead -1); higher = more abundant; growth selection in yeast, the domain comes from the species named
Details: Homo sapiens

Point of comparison: A53V, abundance fitness -0.035 ± 0.29. Against it:
- V29Y — within error, -0.166 ± 0.091
- L11K — lower, -0.747 ± 0.1
- L11G — lower, -0.819 ± 0.058
- L11R — lower, -0.536 ± 0.058
- I13T — within error, -0.141 ± 0.072
- I13Q — within error, 0.131 ± 0.08
- G51M — within error, -0.106 ± 0.084
- G51W — within error, -0.064 ± 0.099
- L12D — lower, -0.97 ± 0.11
- L12K — lower, -0.97 ± 0.098
- T23M — within error, -0.221 ± 0.17
- K47F — within error, -0.22 ± 0.13
- K47L — within error, -0.097 ± 0.065
- K47R — within error, -0.056 ± 0.065
- W27Y — within error, -0.299 ± 0.11
- E28N — within error, -0.312 ± 0.2
- S5A — lower, -0.747 ± 0.41
- S5Y — within error, -0.715 ± 0.5
- Q10A — within error, -0.189 ± 0.063
- Q10T — within error, -0.319 ± 0.073
- Q10L — within error, -0.141 ± 0.056
- H37Y — within error, -0.044 ± 0.081
- M34W — lower, -0.666 ± 0.066
- M34V — within error, 0.003 ± 0.055
- I50Y — within error, -0.006 ± 0.098
- K52A — within error, -0.01 ± 0.09
- K52G — within error, -0.006 ± 0.074
- K52Q — within error, -0.012 ± 0.12
- S38G — within error, -0.069 ± 0.058
- S38F — lower, -0.822 ± 0.079
- Y33L — lower, -0.914 ± 0.077
- Y33R — lower, -0.865 ± 0.067
- Y33N — lower, -0.968 ± 0.14
- D48T — lower, -0.563 ± 0.1
- D48E — within error, 0.042 ± 0.084
- D48N — lower, -0.623 ± 0.068
- V49N — lower, -0.938 ± 0.15
- V49D — lower, -0.877 ± 0.15
- V49W — lower, -0.758 ± 0.11
- V49I — within error, -0.069 ± 0.07
- L9C — within error, -0.052 ± 0.091
- L9N — within error, 0.184 ± 0.11
- A53C — within error, -0.188 ± 0.25
- A53D — within error, -0.08 ± 0.32
- D8T — within error, -0.186 ± 0.071
- D8E — within error, -0.081 ± 0.082
- D8N — lower, -0.757 ± 0.1
- D8K — lower, -0.422 ± 0.087
- D8A — lower, -0.977 ± 0.098
- V16M — within error, 0.065 ± 0.071
- V16W — within error, -0.268 ± 0.069
- V16L — within error, -0.067 ± 0.061
- S40N — within error, -0.16 ± 0.1
- S40A — within error, 0.009 ± 0.069
- N17G — within error, -0.082 ± 0.057
- N17W — within error, -0.348 ± 0.075
- N17D — within error, 0.12 ± 0.094
- S39F — within error, -0.362 ± 0.071
- S39Y — within error, -0.339 ± 0.083
- S39I — within error, -0.197 ± 0.1
- D7E — within error, 0.086 ± 0.068
- D7R — within error, 0.015 ± 0.053
- N32I — lower, -0.66 ± 0.11
- A31K — within error, -0.357 ± 0.085
- A31W — lower, -0.857 ± 0.077
- K2I — within error, 0.1 ± 0.11
- K2V — within error, -0.365 ± 0.077
- P20C — lower, -0.555 ± 0.078
- P20T — lower, -0.607 ± 0.082
- E6H — within error, -0.615 ± 0.31
- N35K — lower, -0.871 ± 0.12
- I30L — lower, -0.789 ± 0.068
- I30A — lower, -0.651 ± 0.062
- I30P — lower, -0.94 ± 0.11
- A21F — within error, -0.096 ± 0.086
- W4C — lower, -0.704 ± 0.093
- K43H — within error, -0.173 ± 0.099
- K43D — within error, -0.015 ± 0.083
- K43S — within error, -0.153 ± 0.065
- L18G — lower, -0.53 ± 0.061
- L18H — within error, -0.272 ± 0.12
- L18Q — within error, -0.38 ± 0.11
- L18S — within error, -0.273 ± 0.072
- F19W — within error, -0.215 ± 0.077
- F19C — lower, -0.586 ± 0.11
- F19L — lower, -0.602 ± 0.07

Variants of: B2
Experiment: as above
Details: Homo sapiens

Point of comparison: E39F, abundance fitness -0.155 ± 0.11. Against it:
- H17L — within error, 0.007 ± 0.078
- H17S — within error, -0.01 ± 0.081
- H17V — within error, -0.208 ± 0.086
- H17Q — higher, 0.186 ± 0.16
- H17A — higher, 0.037 ± 0.07
- H17R — higher, 0.046 ± 0.058
- H17F — within error, -0.025 ± 0.35
- H17P — lower, -1 ± 0.12
- S44D — within error, -0.043 ± 0.3
- S44T — within error, -0.084 ± 0.33
- S44L — within error, -0.194 ± 0.12
- S44Q — higher, 0.247 ± 0.19
- D36L — within error, -0.176 ± 0.065
- D36Y — lower, -0.494 ± 0.13
- D36C — within error, -0.097 ± 0.095
- D36V — within error, -0.044 ± 0.064
- D36S — within error, 0.003 ± 0.068
- C11K — within error, -0.025 ± 0.2
- C11G — within error, 0.037 ± 0.25
- E41F — within error, -0.079 ± 0.11
- E41M — within error, -0.064 ± 0.11
- E41C — within error, 0.016 ± 0.084
- E41S — within error, -0.139 ± 0.092
- E41K — within error, -0.048 ± 0.11
- E41Y — lower, -0.502 ± 0.19
- E39L — higher, 0.075 ± 0.067
- E39R — within error, -0.068 ± 0.061
- E39I — within error, -0.074 ± 0.2
- E39G — within error, -0.057 ± 0.063
- E39K — higher, 0.048 ± 0.075
- E33G — within error, -0.168 ± 0.067
- E33Y — lower, -0.892 ± 0.24
- E33A — within error, -0.064 ± 0.062
- E33I — within error, -0.284 ± 0.28
- E33D — within error, -0.237 ± 0.15
- E33W — lower, -0.429 ± 0.063
- E33H — within error, -0.408 ± 0.17
- E33K — within error, -0.232 ± 0.062
- E33M — within error, -0.341 ± 0.09
- E33L — lower, -0.401 ± 0.072
- E38Y — within error, -0.316 ± 0.39
- E38H — within error, -0.2 ± 0.12
- E38I — within error, -0.021 ± 0.16
- E38A — within error, 0.018 ± 0.066
- E38V — within error, 0.008 ± 0.084
- E38T — within error, -0.014 ± 0.066
- S30A — within error, 0.014 ± 0.071
- S30Q — higher, 0.15 ± 0.12
- S30L — within error, -0.03 ± 0.1
- S30W — within error, 0.02 ± 0.11
- S30G — within error, -0.023 ± 0.078
- S30P — within error, -0.174 ± 0.083
- S30K — higher, 0.274 ± 0.16
- E40T — higher, 0.151 ± 0.1
- E40G — higher, 0.012 ± 0.054
- E40M — within error, -0.127 ± 0.084
- E40V — higher, 0.056 ± 0.061
- E40N — within error, -0.057 ± 0.11
- E40D — within error, -0.158 ± 0.13
- R18P — lower, -0.635 ± 0.15
- R18W — lower, -0.571 ± 0.081
- R18G — higher, 0.063 ± 0.061
- R18L — within error, 0.016 ± 0.089
- R18T — within error, -0.344 ± 0.093
- E43W — within error, -0.197 ± 0.093
- E43L — within error, -0.086 ± 0.093
- E43F — within error, 0.248 ± 0.3
- E43M — within error, -0.148 ± 0.11
- E43R — within error, -0.056 ± 0.077
- E43A — higher, 0.068 ± 0.07
- E1W — within error, -0.061 ± 0.41
- E1K — within error, 0.036 ± 0.12
- E1A — within error, -0.14 ± 0.15
- V23E — within error, -0.26 ± 0.073
- V23L — within error, -0.024 ± 0.082
- V23F — within error, -0.367 ± 0.14
- V23K — higher, 0.074 ± 0.11
- V23D — lower, -0.513 ± 0.14
- W32Y — within error, -0.169 ± 0.12

Source: the Human Domainome abundance scans (Beltran et al. 2025)
